Test system: Escherichia coli TOP10
Assay: shrunken log2 fold change of peptide-encoding DNA abundance (4.5 h post-induction vs induction); higher = less antimicrobial activity (less host growth inhibition)
Details: time post-induction: 4.5 h; library: site-saturation at positions 5, 18, 19, 20
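Also: peptides expressed intracellularly from a pBAD plasmid library in pooled LB shake-flask culture, induced with 0.3% L-arabinose, DNA abundance read by NGS, three biological replicates, DESeq2 with apeglm shrinkage.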

| Sequence | shrunken log2 fold change |
| --- | --- |
| RRIRRRPPRLPRPRPRPGIIPRP | 0.028 |
| RRIRWRPPRLPRPRPRPYWLPRP | -0.0807 |
| RRIRGRPPRLPRPRPRPTCHPRP | 0.893 |
| RRIRIRPPRLPRPRPRPVSNPRP | -0.0661 |
| RRIRIRPPRLPRPRPRPSESPRP | -0.159 |
| RRIRLRPPRLPRPRPRPFKMPRP | -0.388 |
| RRIRDRPPRLPRPRPRPVSNPRP | 0.00716 |
| RRIRVRPPRLPRPRPRPHWNPRP | -0.343 |
| RRIRFRPPRLPRPRPRPNRIPRP | -0.619 |
| RRIRTRPPRLPRPRPRPLRLPRP | 0.219 |
| RRIRERPPRLPRPRPRPVMIPRP | -0.22 |
| RRIRCRPPRLPRPRPRPHCFPRP | -0.429 |
| RRIRKRPPRLPRPRPRPEEKPRP | 0.0431 |
| RRIRGRPPRLPRPRPRPIDHPRP | 0.115 |
| RRIRYRPPRLPRPRPRPYHFPRP | -0.535 |
| RRIRARPPRLPRPRPRPPKIPRP | 0.327 |
| RRIRWRPPRLPRPRPRPAQHPRP | 0.363 |
| RRIRARPPRLPRPRPRPIESPRP | 0.0614 |
| RRIRPRPPRLPRPRPRPLVLPRP | 0.0114 |
| RRIRPRPPRLPRPRPRPIPSPRP | 0.00576 |
| RRIRMRPPRLPRPRPRPRQGPRP | -0.0232 |
| RRIRKRPPRLPRPRPRPFNCPRP | 0.0153 |
| RRIRLRPPRLPRPRPRPAHQPRP | -0.0828 |

| Sequence | shrunken log2 fold change |
| --- | --- |
| RRIRTRPPRLPRPRPRPVPQPRP | 0.00694 |
| RRIRNRPPRLPRPRPRPGVKPRP | -0.117 |
| RRIRERPPRLPRPRPRPFLYPRP | -0.761 |
| RRIRNRPPRLPRPRPRPPYWPRP | 0.0294 |
| RRIRERPPRLPRPRPRPVSQPRP | -0.0404 |
| RRIRQRPPRLPRPRPRPESFPRP | 0.0552 |
| RRIRWRPPRLPRPRPRPRDAPRP | 0.632 |
| RRIRSRPPRLPRPRPRPCFRPRP | -0.349 |
| RRIRCRPPRLPRPRPRPPWSPRP | 0.175 |
| RRIRSRPPRLPRPRPRPNIEPRP | -0.264 |
| RRIRTRPPRLPRPRPRPMHIPRP | -0.158 |
| RRIRARPPRLPRPRPRPNGIPRP | -0.109 |
| RRIRKRPPRLPRPRPRPMPTPRP | 0.0822 |
| RRIRVRPPRLPRPRPRPKHMPRP | -0.518 |
| RRIRWRPPRLPRPRPRPTNDPRP | 0.0116 |
| RRIRDRPPRLPRPRPRPWCAPRP | -0.0367 |
| RRIRQRPPRLPRPRPRPTKCPRP | 0.0325 |
| RRIRIRPPRLPRPRPRPQCSPRP | -0.46 |
| RRIRKRPPRLPRPRPRPCNNPRP | -0.474 |
| RRIRHRPPRLPRPRPRPSYIPRP | -1.77 |
| RRIRHRPPRLPRPRPRPQLYPRP | -0.238 |
| RRIRNRPPRLPRPRPRPDHPPRP | -0.0362 |
| RRIRYRPPRLPRPRPRPHVNPRP | -0.0934 |

| Sequence | shrunken log2 fold change |
| --- | --- |
| RRIRPRPPRLPRPRPRPYCIPRP | -0.654 |
| RRIRFRPPRLPRPRPRPEENPRP | -0.00844 |
| RRIRFRPPRLPRPRPRPTKEPRP | -0.0335 |
| RRIRYRPPRLPRPRPRPQTYPRP | -0.755 |
| RRIRSRPPRLPRPRPRPTMPPRP | 0.0349 |
| RRIRVRPPRLPRPRPRPILNPRP | -0.287 |
| RRIRRRPPRLPRPRPRPCPAPRP | 0.392 |
| RRIRCRPPRLPRPRPRPVSEPRP | 0.00852 |
| RRIRMRPPRLPRPRPRPCLDPRP | -0.273 |
| RRIRKRPPRLPRPRPRPWPSPRP | 0.0175 |
| RRIRLRPPRLPRPRPRPMCQPRP | 0.0751 |
| RRIRTRPPRLPRPRPRPPYMPRP | -0.302 |
| RRIRARPPRLPRPRPRPIDEPRP | 0.379 |
| RRIRFRPPRLPRPRPRPCSKPRP | -0.152 |
| RRIRMRPPRLPRPRPRPALQPRP | 0.791 |
| RRIRIRPPRLPRPRPRPQTRPRP | -0.196 |
| RRIRVRPPRLPRPRPRPARCPRP | 0.205 |
| RRIRDRPPRLPRPRPRPWSWPRP | 0.215 |
| RRIRYRPPRLPRPRPRPQQNPRP | -0.421 |
| RRIRLRPPRLPRPRPRPSMLPRP | -0.965 |
| RRIRSRPPRLPRPRPRPRNPPRP | 0.103 |
| RRIRTRPPRLPRPRPRPHVFPRP | -0.119 |
| RRIRHRPPRLPRPRPRPVYTPRP | -0.206 |

| Sequence | shrunken log2 fold change |
| --- | --- |
| RRIRSRPPRLPRPRPRPPYQPRP | 0.144 |
| RRIRYRPPRLPRPRPRPKNNPRP | -1.02 |
| RRIRPRPPRLPRPRPRPGQMPRP | -0.0125 |
| RRIRWRPPRLPRPRPRPPFSPRP | 0.222 |
| RRIRFRPPRLPRPRPRPHPVPRP | -0.141 |
| RRIRNRPPRLPRPRPRPNSMPRP | -0.815 |
| RRIRTRPPRLPRPRPRPFGGPRP | -0.0397 |
| RRIRNRPPRLPRPRPRPFDDPRP | -0.00192 |
| RRIRWRPPRLPRPRPRPSYYPRP | -0.292 |
| RRIRYRPPRLPRPRPRPGGHPRP | -0.278 |
| RRIRNRPPRLPRPRPRPDFLPRP | -0.342 |
| RRIRQRPPRLPRPRPRPPLAPRP | 0.691 |
| RRIRMRPPRLPRPRPRPNEWPRP | 0.23 |
| RRIRWRPPRLPRPRPRPNGKPRP | 0.123 |
| RRIRWRPPRLPRPRPRPHEYPRP | -0.147 |
| RRIRVRPPRLPRPRPRPKQNPRP | 0.385 |
| RRIRVRPPRLPRPRPRPQPLPRP | -0.109 |
| RRIRMRPPRLPRPRPRPSMDPRP | 0.0865 |
| RRIRHRPPRLPRPRPRPDEFPRP | -0.0223 |
| RRIRFRPPRLPRPRPRPGDHPRP | 0.0283 |
| RRIRERPPRLPRPRPRPCQCPRP | -0.0543 |
| RRIRNRPPRLPRPRPRPLGGPRP | 0.105 |

— the supplement of paper PMC9112550, “Optimization of the antimicrobial peptide Bac7 by deep mutational scanning” (BMC Biology, 2022)
